2 substances from publication PMC7857400 can be followed below.

The target in this experiment is SARS-CoV-2 spike protein receptor binding domain (RBD) (SARS-CoV-2) (UniProt P0DTC2).

Substance homotrimeric Nb21 (Nb21_(3)) showed an IC50 of neutralisation, pseudovirus luciferase assay of 1.3 pM. In turn, homotrimeric Nb20 (Nb20_(3)) gave an IC50 of neutralisation, pseudovirus luciferase assay of 4.1 pM.
